Experiments:
[1] = target: purified mouse NPM1 mutant mNPM1-214S/217S (mouse) (UniProt Q61937); assay: native gel or EMSA; in vitro NPM1 oligomerization assay: purified NPM1 sonicated in binding buffer (50 mM Tris pH 7.4, 150 mM NaCl, 0.5% NP-40), incubated at RT with the in vitro transcribed first ~2000 nt of LETN, 10% native PAGE, anti-NPM1 blot
[2] = target: purified mouse NPM1 protein (mouse) (UniProt Q61937); assay: native gel or EMSA; in vitro NPM1 oligomerization assay as a5 but without functional LETN (no RNA, scrambled RNA of similar length, or LETN lacking the three NPM1-binding fragments)
[3] = target: mouse NPM1 reintroduced into NPM1-/- HUH7 cells (mouse) (UniProt Q61937); assay: native gel or EMSA; native PAGE of lysates of NPM1-/- HUH7 cells with reintroduced human or mouse NPM1; control and LETN knockdown

Substance: purified mouse NPM1 mutant mNPM1-214S/217S (from UniProt Q61937 1-292) (natural protein)
- stoichiometry N [1]: 5

Substance: purified mouse NPM1 protein (from UniProt Q61937 1-292) (natural protein)
- stoichiometry N [2]: 5

Substance: mouse NPM1 reintroduced into NPM1-/- HUH7 cells (from UniProt Q61937 1-292) (natural protein)
- stoichiometry N [3]: 5
